Assay results reported in article PMC9638028, “Yeast Smy2 and its human homologs GIGYF1 and -2 regulate Cdc48/VCP function during transcription stress” (Cell Reports, 2022).
Residue numbers refer to the chain shown, from its start. Numbers in names are those of the source. Values belong to the binder of their own block, whether it stands above or below them.

Target: T1, Cdc48-FLAG3 (S. cerevisiae, UniProt P25694 1-835)
T1 construct: Cdc48, S. cerevisiae; the results and the purification methods say it was purified from yeast; also called FLAG-tagged Cdc48; purified Cdc48; source: S. cerevisiae W303, expressed from the endogenous locus; in extract for the co-IP
Assay: pull-down; GST, GST-GYF or GST-GAF on glutathione beads, 10-fold molar excess of Cdc48-Flag; 20 mM Tris pH 7.5, 200 mM NaCl, 0.05% Triton X-100, 15% glycerol, 75 ug/mL BSA; 2 h; western blot
Settings: both partners purified

T1 sequence (P25694 whole entry): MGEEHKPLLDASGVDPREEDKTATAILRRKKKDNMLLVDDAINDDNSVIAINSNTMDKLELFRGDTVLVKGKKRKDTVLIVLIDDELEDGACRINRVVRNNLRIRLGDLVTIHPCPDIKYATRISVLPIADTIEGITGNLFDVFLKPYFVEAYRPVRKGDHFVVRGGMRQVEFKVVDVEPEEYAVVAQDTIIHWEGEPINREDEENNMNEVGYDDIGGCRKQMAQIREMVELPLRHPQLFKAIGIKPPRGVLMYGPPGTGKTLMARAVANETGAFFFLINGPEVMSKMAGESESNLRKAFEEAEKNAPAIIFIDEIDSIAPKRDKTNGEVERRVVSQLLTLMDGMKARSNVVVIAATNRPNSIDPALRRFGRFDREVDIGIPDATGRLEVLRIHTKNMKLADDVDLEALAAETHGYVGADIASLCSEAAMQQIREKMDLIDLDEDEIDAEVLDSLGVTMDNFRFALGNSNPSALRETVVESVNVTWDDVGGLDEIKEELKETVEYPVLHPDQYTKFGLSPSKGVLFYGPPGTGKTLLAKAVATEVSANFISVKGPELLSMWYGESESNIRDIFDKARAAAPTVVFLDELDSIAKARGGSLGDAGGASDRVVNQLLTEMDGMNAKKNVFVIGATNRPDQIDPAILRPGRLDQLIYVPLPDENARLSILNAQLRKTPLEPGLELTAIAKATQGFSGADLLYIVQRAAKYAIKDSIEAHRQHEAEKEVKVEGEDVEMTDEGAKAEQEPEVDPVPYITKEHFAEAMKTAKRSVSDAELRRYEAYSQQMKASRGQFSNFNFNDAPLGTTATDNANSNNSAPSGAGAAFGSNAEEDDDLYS

- binding result: binds
B1: GST-Smy2 (205-261), GYF (domain or fragment, S. cerevisiae, UniProt P32909 205-261, looked up)
chain: ESSWRYIDTQGQIHGPFTTQMMSQWYIGGYFASTLQISRLGSTPETLGINDIFITLG
notes: Smy2, S. cerevisiae, amino acids 205-261 holding the GYF motif; Vector pGST 6p-1 / pGEX 6p-1; also called GST-GYF; GST-Smy_(205-261); source: bacterial expression (E. coli), purified on glutathione agarose beads

- binding result: binds
B2: GST-Smy2 (205-261) Y234A, GAF (domain or fragment, S. cerevisiae, UniProt P32909 205-261, looked up)
chain: B1 chain with Y30A
notes: Smy2, S. cerevisiae, amino acids 205-261 with the GYF motif changed to GAF; also called GST-GAF; mutated (GAF) version; source: bacterial expression (E. coli), purified on glutathione agarose beads
